From the DeepSol protein solubility set

test: soluble on expression in E. coli; label from the status in PepcDB or PDB records

Sequence	soluble on expression in E. coli
MAHHHHHHMMEERYNPFTGYQTPRHQQQSYRHNGGAMSRGGWGERVDAPADKMKPVDWTRVKLVPGSWKVLDTKAIHRAAHAKAEVVPAKQLTEEESNEWRETHTISIFGEGCPPPLSNFDQLSAFVPAYLQKKLTAQGFTSPTAVQAQAWPILLRGRDMVGVAKTGSGKTLAFMVPALAHIAMQEPLRTGDGPMVVVLAPTRELAQQIEQETKKVLPHDLRCGCVYGGAPKGPQLGILRNGVHILVATPGRLIDFLEIKRVNFFRVTYLVLDEADRMLDMGFEPQVRAICGQIRPDRQTLMFSATWPKEIQRLAAEFQKDWIRINVGSTELLANKDVTQHFILTQEHAKMEELKKLLANHRNQRVLIFCKTKRTADDLEWQLKRWGYDAMAIHGDKEQRQREFILERFRKDPRLCLVATDVAARGLDIKELETVINYDFPMQIDDYVHRIGRTGRAGAKGEAFTLITKREQQITPAVVTELIAIVDRAQQQVPDWLREWGEQRPRYQVMKRNRNMMGFGSSRHMPALYNGNRASFDAAGGGHPGNNNGTAGNKRGGEGGVFGLARHGSNGAAPFSSSRIEYKRFDDSDDDDGAAPPAKKRSK	soluble
MAIADEFRQLQTRLLECWEGTETFIPELPRGPGGIERDILVVPSLSFPQPELGKITGYTHYEERQLYTLIQLRNPRTRMIYVTSQPLHPSIVDYYLDLLPGVPSCHARDRLLLLATYDRSDKPLTAKILERPRLLERIRQALRPNQAYMVCFNSTPLERELAVRLGVPLYSTDPDLLYWGTKAGSRELFAAAGIRHPIGSGFLQGVPELVRAIAHLQEKCPELQQLVVKLNEAFSGEGNALLDLRPLRPLGSPHTPDHLQRIENSLEDMVFQAPNETWASYRQRFTDLGGIVEAFVEGTVKRSPSVQGCITPKGSVEIVSTHEQLLNAPTGQIFIGCEFPAHADYRQQLQELGQKVGTYLAQQGVIGCFSVDVVATQTTEGWELYAIEINLRKGGTTHPFMTLKFLTDGHYELASGRFYSKHRRPKYYIASDNLCQPHYRGLLPNDLLDMIARYHLHFDSSTETGTVFHLMGALSEFGKLGLVSIGNTPEEAQAIYNQTIGVLDAAALLEHHHHHH	not soluble
MGSDKIHHHHHHALPDPVKPKAPKAVNPFHLGMAGYTFVNFDLDTTLKTLERLDIHYLCIKDFHLPLNSTDEQIRAFHDKCAAHKVTGYAVGPIYMKSEEEIDRAFDYAKRVGVKLIVGVPNYELLPYVDKKVKEYDFHYAIHLHGPDIKTYPDATDVWVHTKDLDPRIGMCLDVGHDLRNGCDPVADLKKYHTRVFDMHIKDVTDSSKAGVGIEIGRGKIDFPALIRMMREVNYTGMCSLEYEKDMKDPFLGIAESIGYFKAVSDLT	not soluble
GSTPHLVNLNEDPLMSECLLYHIKDGVTRVGQVDMDIKLTGQFIREQHCLFRSIPQPDGEVVVTLEPCEGAETYVNGKLVTEPLVLKSGNRIVMGKNHVFRFNH	soluble
MERNKLARQIIDTCLEMTRLGLNQGTAGNVSVRYQDGMLITPTGIPYEKLTESHIVFIDGNGKHEEGKLPSSEWRFHMAAYQSRPDANAVVHNHAVHCTAVSILNRSIPAIHYMIAAAGGNSIPCAPYATFGTRELSEHVALALKNRKATLLQHHGLIACEVNLEKALWLAHEVEVLAQLYLTTLAITDPVPVLSDEEIAVVLEKFKTYGLAIEE	soluble
MGSDKIHHHHHHMAFAMKVISQVEAQRKILEEAVSTALELASGKSDGAEVAVSKTTGISVSTRYGEVENVEFNSDGALGITVYHQNRKGSASSTDLSPQAIARTVQAALDIARYTSPDPCAGVADKELLAFDAPDLDLFHPAEVTPDEAIELAARAEQASLKADKRITNTEGGSFNSHYGIKVFGNSHGMLQGYCSTRHSLSSCVIAEENGDMERDYAYTIGRAMADLQAPEWVGAECARRTLSRLSPRKLSTMKAPVIFANEVATGLFGHLVGAIAGGAVYRKSTFLLDSLGKQILPEWLTIEEHPHLLKGLASSPFDSEGVRTERRDIVKDGVLTQWLLTNYSARKLGLKSTGHAGGIHNWRIAGQGLNFEQLLKEMGTGLVVTELMGQGVSGITGDYSRGAAGFWVENGEIQYPVSEITIAGNLKEMWRNIVTVGDDIETRSNIQCGSVLLPEMKIAGQ	not soluble
MQKKEKEGRRKLKYDSNDGLLPEIRRVCGFPHHISEELSARGSGKKKKQVEEEWKWPEAQICGICSSGGNILCCEQCPASFHLACIGYESSDLPDDNFYCNRCRNLPENVRLFPPEKCSPSVNPVLRVENENHRNWEAIEYHCNRLRDEEQAEKMKKDVAYGPKSEFAEIQDCFRDKNLLKALGMANPMDYTIPPEFQADRDCFSGDAMEDKRPTIMGEVCAECNLKDDWTRMLKCDFCDLIWHQKCVTPPLIHVRAYFYWMCPRHPETVIDSVLIGDEISREDRRRLYDKYADVEPSYEIFEEFCIKTEQFRMKSEVFDSEEMYYDPEEASTSFMQTVIKPRQTSRKTTGRSASKKKSNGRFFASSWDFPGLSSRETSPSRKNSRKSPDSVATERKDRVLDKIDKKRSIKLTEEEIIMSIMPVEESSRAEYLTQKMLGTDIEQSTNFFNRHSAMIDRIRAFYGNLPEKELIKLMREDLDPVETIRGGGTQSIISQNEKPYRKKLKADVEVLIQHVGLGTDSTERHFNSIGTEAFYRRCAPPVTARNVLNQKTLREVVLNSQKEAHEGAGVYEYHAEPEQLENLVLLAYEPSFESPEDRDTYFVPSMTIWSKEPICALTRKWAASGASKQAPPSSSSSEAPSVEAEVKEEVVEEEDEENEARMRRESTATSSIVYNNDTGPLEFIEENMPPPAATITEKSDPFDFSSLEMPEIHEKAETVYEAEGYYGESDDLPLDLRRTKSESDLVDRIIWPLVRSALQNFIRREDCHQMHLEHNYSSLYQTHDSDEENQPVVEVEKLITYEEYQENLYSAEFASPQTPPPIPPPPAVYYDNFSDAPRKRGRPVGSRNRKEGDTTIPKQQRKRNPQPVGRGRGRGGGRPRGSRSSRGSMDDGGGSRRHSTASDANESAELLNQPVTKQLRDEIKEIKLKYTKMMMDRGFEQAKDEYFRNRDAALSKWTPEQWKEHNEQCVAARLSSLIPYDQRYFLPTQRVLARLDLEDGDLRLPAVHLPIAIQRCVTKLGTAHDCHVRCDKLTGDAWCSVLADYHCDIVRDYYSDNFYISTLGTEAVFVDGRAVRRPRLTPFEAAEKLRTRGSSTIIPPHIKCRCQKHSDLQISRQESTGELVRCGILKLEHGARIQIGCVAFIFSRI	not soluble
GPEQVLDRASMHLANGLLGNPDSAAGLEVLLGGLKLRFVSGSAVAVTGAEGMVTLDGTELPLNKAVRVPPGAVLELGPAMFGIRYYLAVQGGISAQGEAAQGEAIRAGAALTFGRPNNHGSPEVNHPARRALDPERPVVARVSRGPQAQNDDAGTWLRLTSEPWILSPESDRAGARLVGRPLDVTSAPIPQAQPLVSGSVLLPSSGLPVIALAGHPDTSQSPVIAVVRDEDLDVLGQARPGQMVHLLG	not soluble
MNRKRKWQIPPPSEPVTDEYLTSVTIGERKPLNDRIQLAEYDLRWPSMFSVAADKIRSALSEKALLVEHVGSTSVPGLAAKLIIDMLLGVTDSADEKSYVLPLEQQGFVLQAREPGWYEHRFFRLKSGDMEWHLHVFSAECEEIDRMLAFRNWLRVHDDDRQRYENVKRTLAARTWKHMQNYADAKSDIVREILGRAQDDHVVGITSEAVSAAFRFR	not soluble
MGSDKIHHHHHHMEVNRLSALTPPMGWNSWDCYGASVTEEEVLGNAEYMANHLKKYGWEYIVVDIQWYEPTANSSAYNPFAPLCMDEYGRLLPATNRFPSAKNGAGFKPLSDAIHDLGLKFGIHIMRGIPRQAVYENSPVLGSTKTAREIAHTNSICPWNTDMYGVDPTKEGAQSYYNSLFELYAQWGVDFVKVDDIAASRLYDTHLEEIKMIQRAIQACGRPMVLSLSPGPAPIKYAHHFKTNANMWRITDDFWDDWSLLYQMFERCEVWEKHIGTGHWPDCGMLPLGHIGIRSVDGPGGDRWTRFTKDEQLTMMNLWAICHSPLMFGGELRDNDEWTLSLLTNEGILSINQKSVLNRFVYREEDKVAWAANGRNGEAYVALFNLHDQQKTLQFRLDMVGIMETVQLFNVWDRSFLQSLAPSESFQIELKPHQSMMLKLSPDR	not soluble
MKKSLVVCALSAAVLLSGCETVNTTSGGVVGVDRKQSMFSMVSSAEVNQSYAQSYQQTLGEASSQGVLDKTSANAKRLQVIANRLIAQAPTFRPDCAQWKWEVNLIKSDELNANCGPGGKIIFYSGLIEKLKLTDDEIAAVMGHEIAHALREHGREAMSKQYAVGAGKQIATLFGVPQETVALGDNGVNLLMTLPNSRENENEADLIGLELAARAGYNPNAAISLWNKMGQAAGGSAPPEFMSTHPASTSRIASLQAAIPKVMPLYQAAKKSLEHHHHHH	not soluble
MAHHHHHHMMSKPHHATLESIKYTPGSLRLLDQRKLPLETVFDDVLTVEDIWSAIKEMRVRGAPAIAVSAALGIAVATQRKAANGELKSGREVQTFLLTSCDFVMTSRPTAVNLFNCLRDLKAQVDKLDPTKAAAEVAQAFVELAEAVYTNDVAFNEGIMRHGAAHILAAAKAEGRDKVSILTICNTGALATSRYGTALGVVRQLFYDGKLERVYACETRPWNQGARLTVYECVQEDIPCTLICDGAASSLMLNRKIDAVVVGADRICQNGDTANKIGTYNLAVSAKFHGVKLYVAAPTTTLDVKTASGNHVEIEEREPTEITTNLVTKQRVVADGPHLSIWNPVFDITPSELITGGIITEKGVQAPAASAPYYDIASIIAQA	soluble
MLARCLAFSYPASTFLIFFLRRRLSHHLWHPTYPRVLNSVRPAFRLAPFVSQKDTDMTVEQPIQVDTLVVGAGQAGVAMSEHLSKLGVPHLVLERSRVAEAWRTGRWDSLVANGPAWHDRFPGMEFDVAADAFPAKDQVADYFEAYARKFNAPIRTGVEVRKVLRNVGRPGFTVETSEGLIQAQRVVAATGPFQRPVIPPIATANDRLTQIHSAEYRNPQQLPEGAVLVVGAGSSGVQIADELQRAGRRVYLSVGAHDRPPRSYRNRDFCWWLGVLGEWDAEIAKPGREHVTIAVSGARGGQTIDFRALAHQGITLVGLTKAFAGEHVTFQADLLDNLARGDENYLALLDAADAYIARNGLDLPLEPEARRRLPDPDCVKQPILELDLQQAGITSIIWATGYAVDFSWLQVDTFSEQGKPLHQRGVSREPGVYFLGLPWLSRRGSSFIWGVWHDAKHVADHIATQRKYQAYSDARPPAATAEAPALNLSPVGAHLEHHHHHH	not soluble
GPGSMAKYFVPDTTFGLDAECAVCCCLWTDPVEISECQHIFCRGCVEGLETCPVCCGPVTRLDTPGKFILRLLQRTQGSCSACLWKGTYSDFKEKHFECLEADEVQSSDEGKILATTECVAMREYYLEGSGAKPEGSAPSPAAVDSFLVHPVAAVNAGSPHAQPFADATNNGAPVADAHLTCEQRAQWRQSLTSTARDYGMSDREYRELMECFPDFAVPVPDRGMAPELRWRGACRLLRFLNYPNHPDDVKNLFEMADRDALTESVPFHVLCLWLMLNRRNPAQWYHMTAEPYEQFLKVAQLLDVEATGLFQLDQCRILAEQYFERDVCDAEWLRIKRLLRSKDAEIRQSFLSSANRRRVNLDESFALPSAKLPLHDVLCAFTRHVDALKKEQQQQSEAERVQADYVRRIKRIVDFYEPDAVNQLDATLQKFTGEEESLLMTLTAMYGPEPP	soluble
MKLLILFSLFAIFFGVIALDSPIPEFYSTGRSTRVPSHRHRIPRLGKREVPNFQADNVPEAGGRVRRYVGPPLKLVILI	not soluble
